According to patent US20070231333A1, “ANTI-5T4 ANTIBODIES AND USES THEREOF” (Wyeth, priority 2006, published 2007):

Legend:
[1] = target: T1, human 5T4 antigen (Homo sapiens, UniProt Q13641); experiment: BIACORE analysis of antibody binding to human 5T4 antigen immobilized on a CM5 chip; conditions: murine antibodies, Table 3
T1 sequence (Q13641 32-420): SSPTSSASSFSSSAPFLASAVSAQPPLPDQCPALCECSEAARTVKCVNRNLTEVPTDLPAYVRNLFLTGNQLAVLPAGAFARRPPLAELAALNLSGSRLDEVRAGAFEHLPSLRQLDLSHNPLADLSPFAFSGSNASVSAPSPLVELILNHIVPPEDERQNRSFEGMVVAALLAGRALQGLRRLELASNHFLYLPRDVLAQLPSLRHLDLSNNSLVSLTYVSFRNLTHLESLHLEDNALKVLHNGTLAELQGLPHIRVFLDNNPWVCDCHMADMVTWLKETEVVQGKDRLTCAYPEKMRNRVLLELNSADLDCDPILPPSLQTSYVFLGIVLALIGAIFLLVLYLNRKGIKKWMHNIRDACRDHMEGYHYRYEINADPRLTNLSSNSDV
Description: To assess the binding specificity and affinity of the A1, A2, and A3 antibodies, BIACORE® analysis was performed using human 5T4 antigen immobilized on a CM5 chip. BIACORE® technology utilizes changes in the refractive index at the surface layer upon binding of the antibody to the 5T4 antigen immobilized on the layer. Binding is detected by surface plasmon resonance (SPR) of laser light refracting from the surface. Analysis of the signal kinetics on rate and off rate allows discrimination between non-specific and specific interactions. The H8 anti-5T4 antibody was used as a control. H8 is a hybridoma-generated monoclonal mouse IgG1 antibody described in PCT International Publication No. WO 98/55607 and in Forsberg et al. (1997) J. Biol. Chem. 272(19):[…].
To assess the binding specificity and affinity of the chimeric and humanized H8, A1, A2, and A3 antibodies, BIACORE® analysis was performed using human 5T4 antigen immobilized on a CM5 chip. See Example 2.

[2] = tested on: MDAMB435/5T4 cells; experiment: Modulation/internalization of antibodies by MDAMB435/5T4 cells (FACS); assay type: cell-based, human; conditions: 37° C., 4 or 24 hours, 4C
Description: FIGS. 4A-4C are line graphs that show modulation of H8, A1, A2, and A3 antibodies by MDAMB435/5T4 cells. […] MCF, mean cellular fluorescence; supt, supernatant.
To assess internalization of antibodies upon binding to 5T4 antigen, the amount of H8 and A1 antibodies detected at the cell surface versus in the supernatant was determined as a function of time. Non-enzymatically dissociated MDAMB435/5T4 cells (human breast cancer cells) were exposed to anti-5T4 antibodies for 1 hour at 4° C. Cells were washed and incubated in media at 37° C. for 4 hours or 24 hours. The amount of antibody bound to cellular membranes versus unbound antibody (i.e., presence in the supernatant) was determined using FACS.

[3] = tested on: human/mouse 173-258 5T4 chimera; experiment: Epitope mapping ELISA, human/mouse 5T4 chimeras; assay type: binding; set-up: key: +: binding; −: no binding; +/−: partial binding
Description: (§1) To identify the epitopes to which each of the A1, A2, A3, and H8 antibodies bind, ELISA assays were performed using (1) 5T4 ectodomain Fc constructs with deleted or mutated sequences, and (2) 5T4 chimera constructs transiently expressed in COS-1 cells. The ectodomain includes the amino-terminal region, two leucine-rich repeats, and the intervening hydrophilic region. Fusion proteins containing a 5T4 ectodomain and a Fc constant regions from human IgG1 were prepared using mouse 5T4 (amino acids 1-361), rat 5T4 (amino acids 1-361), cynomologous monkey 5T4 (amino acids 1-355), chimpanzee 5T4 (amino acids 1-355), and black-tailed marmoset (amino acids 1-355). The 5T4 chimera constructs are depicted in FIG. 5. The binding results are summarized in Table 5, which indicates specific binding, partial binding, or lack of binding, by each of the H8, A1, A2, and A3 antibodies.

[4] = tested on: human/mouse 282-361 5T4 chimera (with or without N-link at position 344); experiment: Epitope mapping ELISA, human/mouse 5T4 chimeras; assay type: binding; set-up: key: +: binding; −: no binding; +/−: partial binding; conditions: human/mouse 282-361 (with or without N-link at position 344)
Description: as §1

[5] = target: T2, human 5T4 ectodomain Fc fusion protein (Homo sapiens, UniProt Q13641); experiment: Competitive binding assay with biotinylated humanized H8 antibody; conditions: FIGS. 6A-6B
T2 construct: Human; 100; 1-355; made in house; host or cells: COS-1 cells (transient)
T2 sequence (Q13641 32-355): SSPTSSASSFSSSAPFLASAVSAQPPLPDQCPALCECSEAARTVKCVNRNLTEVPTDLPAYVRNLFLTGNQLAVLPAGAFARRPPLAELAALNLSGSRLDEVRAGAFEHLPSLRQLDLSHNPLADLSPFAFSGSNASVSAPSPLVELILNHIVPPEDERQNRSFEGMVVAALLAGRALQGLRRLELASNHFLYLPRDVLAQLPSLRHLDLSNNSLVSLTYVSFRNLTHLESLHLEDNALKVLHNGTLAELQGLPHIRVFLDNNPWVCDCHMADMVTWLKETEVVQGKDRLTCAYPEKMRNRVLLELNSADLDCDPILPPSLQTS
Text: FIGS. 6A-6B show graphical results of competitive binding of humanized H8 and each of the indicated antibodies to human 5T4 ectodomain Fc fusion protein. HuH8, humanized H8 antibody; ChiA1, chimeric A1 antibody; ChiA1+C67F, chimeric A1 antibody bearing C67F mutation; ChiA2, chimeric A2 antibody; muA2, murine A2 antibody; ChiA3, chimeric A3 antibody; ChiA3+C91Y, chimeric A3 antibody bearing C91Y mutation, muA3, murine A3 antibody; No Ab, no antibody (control).
In addition to direct binding assays, competitive binding assays were performed using biotinylated humanized H8 antibody and each of the A1, A2, or A3 antibodies. Inhibition of binding to human 5T4 was not observed, supporting that each of A1, A2, and A3 binds to a 5T4 epitope that is distinct from that bound by the H8 antibody.

KA [1]: 6.5e+07 M⁻¹
ka [1]: 56000 M⁻¹ s⁻¹
kd [1]: 0.00087 s⁻¹
binding to 5T4 antigen construct [3]: +
binding to 5T4 antigen construct [4]: −
inhibition of binding of biotinylated humanized H8 to human 5T4 [5]: not observed
B1: A2: murine anti-5T4 monoclonal antibody (IgG2b heavy chain); VH residues 19-135 of SEQ ID NO:6, VL residues 23-130 of SEQ ID NO:8 (antibody, listed as Mus musculus, V domains shown)
VH: MEWRIFLFILSGTAGVHSQVQLQQSRPELVKPGASVKMSCKASGYTFTDYVISWVKQRTGQGLEWIGEIYPGSNSIYYNEKFKGRATLTADKSSSTAYMQLSSLTSEDSAVYFCAMGGNYGFDYWGQGTTLTVSS
VL: MDFQVQIFSFLLISASVIMSRGQIVLTQSPAIMSASLGERVTLTCTASSSVNSNYLHWYQQKPGSSPKLWIYSTSNLASGVPARFSGSGSGTSYSLTISSMEAEDAATYYCHQYHRSPLTFGAGTKLELK
modifications: (1)..(18) leader sequence; (19)..(135) heavy chain variable region; (44)..(53) CDR1; (68)..(84) CDR2; (117)..(124) CDR3; (1)..(22) leader sequence; (23)..(130) light chain variable region; (46)..(56) CDR1; (73)..(79) CDR2; (112)..(120) CDR3
levels of antibody at the cell surface ([2]; FIGS. 4A): decline over time
levels of antibody in the supernatant ([2]; FIGS. 4B): remain constant
